Measured values: patent US9399663B2, “Competitive inhibitor of GP120” (priority 2014, dated 2016)
pKd: −log10 of the molar value. Where “and” joins values, the source holds several entries; their conditions need not be identical. Identical values can stand only once. Like-named read-outs stand apart in the source and are kept apart here.

Tests used:
recombinant TUBB3 = target: T1, recombinant TUBB3 (Homo sapiens, UniProt Q13509); experiment: SPR (BIACORE T200) binding to immobilized TUBB3; details: for pKd: Ligand: TUBB3
T1 construct: purchased MyBioSource, San Diego, Calif
T1 sequence (Q13509 whole entry): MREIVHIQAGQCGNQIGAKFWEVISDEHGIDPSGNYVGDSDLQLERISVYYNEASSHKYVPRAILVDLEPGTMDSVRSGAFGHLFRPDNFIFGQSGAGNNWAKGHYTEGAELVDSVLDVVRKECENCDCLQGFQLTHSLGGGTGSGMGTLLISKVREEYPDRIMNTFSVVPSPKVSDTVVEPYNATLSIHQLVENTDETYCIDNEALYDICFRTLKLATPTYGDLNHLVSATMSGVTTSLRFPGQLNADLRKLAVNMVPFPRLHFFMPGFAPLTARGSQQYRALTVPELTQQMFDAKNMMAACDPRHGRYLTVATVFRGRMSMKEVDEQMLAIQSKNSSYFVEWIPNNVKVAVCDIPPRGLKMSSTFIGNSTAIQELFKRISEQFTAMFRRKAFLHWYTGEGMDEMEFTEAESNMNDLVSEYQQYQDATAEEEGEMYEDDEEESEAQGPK
Method: (§1) Surface plasmon resonance (SPR). BIACORE® T200™ was used to determine the kinetic parameters for the binding of recombinant TUBB3, tubulin dimer, and assembled microtubules (ligands) to the various isoforms of gp120 or related peptides (analytes). Recombinant TUBB3, tubulin dimer, and assembled MTs were covalently attached to different flow cells of a carboxymethyldextran (CM5) sensor chip by amine coupling. The chip surface was activated for 720 sec at 10 μL/min with of 1:1 mixture of 0.1 M N-Hydroxysuccinimide (NHS) and 0.5 M 1-Ethyl-3-(-3-dimethylaminopropyl)-carbodiimide hydrochloride (EDC). […] After ligand capture, the surfaces were deactivated by injecting 1 M ethanolamine for 720 sec at 10 μL/min. HBS-P (10 mM HEPES, pH7.4, 150 mM NaCl, 0.05% P-20) with 2 mM MgCl2 used as the running buffer. Flow cell 1 on each chip was left empty and used for reference surface. […] Kinetic studies were performed by injecting different concentrations of the analytes in triplicate. The chip surface was regenerated by with 10 mM glycine pH 1.5 injected for 30 sec at a flow rate of 100 μL/min. Each sample was injected for 60 sec (contact time) followed by a dissociation time of 300 sec at a flow rate of 100 μL/min. Data was analyzed with BIACORE® T200™ Evaluation Software (version 1) to determine the equilibrium dissociation constant (KD) from a 1:1 binding model. Binding studies with peptides Helix A and Helix B were done in the same way as described above. Kinetic studies were performed by injecting different concentrations (20 μM, 10 μM, 5 μM, 2.5 μM, 1.25 μM and 0.625 μM) of Helix A and Helix B. Competition experiments with Helix A and Helix B were performed by mixing 100 nM gp120 isoforms with 10 μM of each peptide and injecting over the sensorchip surface.
(§2) Recombinant TUBB3, tubulin dimer, and assembled MTs from bovine brains were immobilized on a BIACORE® CM5 chip by amine coupling. Different concentrations of gp120s (from 3.13 to 100 nM) were injected over the surface in triplicates in each experiment. The kinetics of interaction was analyzed using a BIACORE® T200™ instrument. BiaEvaluation software was used to calculate binding affinities based on 1:1 binding model.

tubulin dimer = experiment: SPR (BIACORE T200) binding to immobilized tubulin dimer; set-up: species or system Porcine
Method: as §1
as §2, with “BiaEvaluation software was used to calculate binding affinities based on 1:1 binding model.” left out

assembled MTs = experiment: SPR (BIACORE T200) binding to immobilized assembled microtubules; set-up: species or system Porcine
Method: Surface plasmon resonance (SPR). BIACORE® T200™ was used to determine the kinetic parameters for the binding of recombinant TUBB3, tubulin dimer, and assembled microtubules (ligands) to the various isoforms of gp120 or related peptides (analytes). Recombinant TUBB3, tubulin dimer, and assembled MTs were covalently attached to different flow cells of a carboxymethyldextran (CM5) sensor chip by amine coupling. The chip surface was activated for 720 sec at 10 μL/min with of 1:1 mixture of 0.1 M N-Hydroxysuccinimide (NHS) and 0.5 M 1-Ethyl-3-(-3-dimethylaminopropyl)-carbodiimide hydrochloride (EDC). […] After ligand capture, the surfaces were deactivated by injecting 1 M ethanolamine for 720 sec at 10 μL/min. HBS-P (10 mM HEPES, pH7.4, 150 mM NaCl, 0.05% P-20) with 2 mM MgCl2 used as the running buffer. Flow cell 1 on each chip was left empty and used for reference surface. TUBB3 (1040 RU), tubulin dimer (2086 RU), and assembled MTs (990 RU) were captured on the remaining 3 flow cells. Kinetic studies were performed by injecting different concentrations of the analytes in triplicate. The chip surface was regenerated by with 10 mM glycine pH 1.5 injected for 30 sec at a flow rate of 100 μL/min. Each sample was injected for 60 sec (contact time) followed by a dissociation time of 300 sec at a flow rate of 100 μL/min. Data was analyzed with BIACORE® T200™ Evaluation Software (version 1) to determine the equilibrium dissociation constant (KD) from a 1:1 binding model. Binding studies with peptides Helix A and Helix B were done in the same way as described above. Kinetic studies were performed by injecting different concentrations (20 μM, 10 μM, 5 μM, 2.5 μM, 1.25 μM and 0.625 μM) of Helix A and Helix B. Competition experiments with Helix A and Helix B were performed by mixing 100 nM gp120 isoforms with 10 μM of each peptide and injecting over the sensorchip surface.
Recombinant TUBB3, tubulin dimer, and assembled MTs from bovine brains were immobilized on a BIACORE® CM5 chip by amine coupling. […] The kinetics of interaction was analyzed using a BIACORE® T200™ instrument. […]

tubulin β-3 (TUBB3) = target: T2, tubulin β-3 (TUBB3) (Rattus norvegicus, UniProt Q4QRB4); experiment: LC-MS/MS of gp120 immunocomplex from lysates of gp120-treated neurons; format: binding; details: anti-gp120 immunoprecipitation
T2 construct: Neurons exposed to gp120IIIB were lysated in RIPA buffer; endogenous in cells; host or cells: primary cortical neurons from embryonic (E17-18) Sprague Dawley rats
T2 sequence (P68370 whole entry): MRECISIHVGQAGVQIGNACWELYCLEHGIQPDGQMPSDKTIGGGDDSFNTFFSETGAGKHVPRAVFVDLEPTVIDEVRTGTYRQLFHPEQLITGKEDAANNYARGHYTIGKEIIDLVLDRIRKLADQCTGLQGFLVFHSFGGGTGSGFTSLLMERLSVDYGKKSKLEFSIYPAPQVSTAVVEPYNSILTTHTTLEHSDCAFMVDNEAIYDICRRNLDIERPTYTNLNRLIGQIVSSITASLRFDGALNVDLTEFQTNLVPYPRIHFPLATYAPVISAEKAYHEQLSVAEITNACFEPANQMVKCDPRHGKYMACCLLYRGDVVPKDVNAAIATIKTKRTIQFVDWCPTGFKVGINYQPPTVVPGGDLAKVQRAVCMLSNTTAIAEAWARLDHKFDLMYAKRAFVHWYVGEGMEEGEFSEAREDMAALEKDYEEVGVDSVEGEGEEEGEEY
T2 sequence (Q4QRB4 whole entry): as the sequence (Q13509 whole entry) above, with E441D counted along it
Method: LC-MS/MS analysis identifies tubulin β-3 (TUBB3) as an interactor of gp120IIIB Top panel: Chromatogram of the whole data set of gp120 interactors. In orange is indicated the peak (retention time=46.45 minutes) associated to peptide ^337[…]^350 (SEQ ID NO: 15) of TUBB3. Bottom panel: The fragmentation spectrum of peptide of TUBB3 is shown to identify TUBB3 among gp120IIIB interactors. The series of y sequence coverage is highlighted.
Liquid chomatography-mass spectrometry (LC-MS/MS): Neurons exposed to gp120IIIB were lysated in RIPA buffer with protease and phosphatase inhibitors (THERMO FISHER […]®) at 4° C. and then incubated with mouse anti-gp120 antibody. Gp120 complex of interacting proteins was eluted from immobilized protein A beads, reduced, alkylated and digested with trypsin. The tryptic digests were analyzed by mass spectrometry, using a LTQ ORBITRAP XL™ hybrid FTMS (Fourier transform mass spectrometer) (THERMO FISHER […]®). Peptide separation was performed with solvent A (0.1% HCOOH in H2O) and solvent B (0.1% formic acid in ACN), using the following gradient: from 5% B for 1 minute to 60% B in 70 minutes. Peptides were analyzed using a precursor mass range of 300-5000 Da. MS/MS analyses were used to query a non-redundant protein database (rat.fasta) using the software SEQUEST™. […]

[1] = 100 nM gp120 alone, 60 sec injection

## gp120IIIB: HIV envelope protein gp120, strain IIIB, purchased from Immunodiagnostics
Recombinant TUBB3; [1]
  SPR response (2-1) RU, Fc2: Tubulin β-3 1092 RU: 35 RU and 44 RU
Recombinant TUBB3; mean of two independent experiments, read-out: Mean KD
  pKd: 8.12
Recombinant TUBB3; single experiment, gp120 3.13 to 100 nM, 1:1 binding model, read-out: KD
  pKd: 8.10 and 8.15
Tubulin dimer; [1]
  SPR response (3-1) RU, Fc3: Tubulin Dimer 1900 RU: 21 RU and 14 RU and 18.6 RU
Tubulin dimer; Ligand: Tubulin Dimer, mean of two independent experiments
  pKd: 7.91
Assembled MTs; [1]
  SPR response (4-1) RU, Fc4: Microtubules 970 RU: 19 RU and 15 RU and 23.2 RU
Assembled MTs; Ligand: Assembled MTs, mean of two independent experiments
  pKd: 8.00
Tubulin β-3 (TUBB3)
  TUBB3 identified among gp120 interactors (LC-MS/MS): interactor
